# Results taken from article PMC9242541, “Importance of Rare DPYD Genetic Polymorphisms for 5-Fluorouracil Therapy in the Japanese Population” (Frontiers in Pharmacology, 2022).
# Residue numbers refer to the chain shown, from its start.
# B1: wild-type dihydropyrimidine dehydrogenase (DPD) (enzyme, human, UniProt Q12882 4-1025, looked up)
# chain: VLSKDSADIESILALNPRTQTHATLCSTSAKKLDKKHWKRNPDKNCFNCEKLENNFDDIKHTTLGERGALREAMRCLKCADAPCQKSCPTNLDIKSFITSIANKNYYGAAKMIFSDNPLGLTCGMVCPTSDLCVGGCNLYATEEGPINIGGLQQFATEVFKAMSIPQIRNPSLPPPEKMSEAYSAKIALFGAGPASISCASFLARLGYSDITIFEKQEYVGGLSTSEIPQFRLPYDVVNFEIELMKDLGVKIICGKSLSVNEMTLSTLKEKGYKAAFIGIGLPEPNKDAIFQGLTQDQGFYTSKDFLPLVAKGSKAGMCACHSPLPSIRGVVIVLGAGDTAFDCATSALRCGARRVFIVFRKGFVNIRAVPEEMELAKEEKCEFLPFLSPRKVIVKGGRIVAMQFVRTEQDETGKWNEDEDQMVHLKADVVISAFGSVLSDPKVKEALSPIKFNRWGLPEVDPETMQTSEAWVFAGGDVVGLANTTVESVNDGKQASWYIHKYVQSQYGASVSAKPELPLFYTPIDLVDISVEMAGLKFINPFGLASATPATSTSMIRRAFEAGWGFALTKTFSLDKDIVTNVSPRIIRGTTSGPMYGPGQSSFLNIELISEKTAAYWCQSVTELKADFPDNIVIASIMCSYNKNDWTELAKKSEDSGADALELNLSCPHGMGERGMGLACGQDPELVRNICRWVRQAVQIPFFAKLTPNVTDIVSIARAAKEGGANGVTATNTVSGLMGLKSDGTPWPAVGIAKRTTYGGVSGTAIRPIALRAVTSIARALPGFPILATGGIDSAESGLQFLHSGASVLQVCSAIQNQDFTVIEDYCTGLKALLYLKSIEELQDWDGQSPATVSHQKGKPVPRIAELMDKKLPSFGPYLEQRKKIIAENKIRLKEQNVAFSPLKRNCFIPKRPIPTIKDVIGKALQYLGTFGELSNVEQVVAMIDEEMCINCGKCYMTCNDSGYQAIQFDPETHLPTITDTCTGCTLCLSVCPIVDCIKMVSRTTPYEPKRGVPLSVNPVC
# notes: dihydropyrimidine dehydrogenase (DPD), human, wild-type DPYD cDNA; the open-reading frame encodes 1,025 amino acid residues; no tag is stated; also called wild-type DPD; source: 293FT cells, transfected (pcDNA3.4), soluble fraction
# B2: DPD variant I245F (enzyme, human, UniProt Q12882 4-1025, looked up)
# chain: B1 chain with I242F
# notes: dihydropyrimidine dehydrogenase (DPD), human, DPYD cDNA with a variant found in Japanese individuals; made by site-directed mutagenesis of the wild-type construct; also called 733A > T; source: 293FT cells, transfected (pcDNA3.4), soluble fraction
# B3: DPD variant D291N (enzyme, human, UniProt Q12882 4-1025, looked up)
# chain: B1 chain with D288N
# notes: dihydropyrimidine dehydrogenase (DPD), human, DPYD cDNA with a variant found in Japanese individuals; made by site-directed mutagenesis of the wild-type construct; also called 871G > A; source: 293FT cells, transfected (pcDNA3.4), soluble fraction
# B4: DPD variant T298M (enzyme, human, UniProt Q12882 4-1025, looked up)
# chain: B1 chain with T295M
# notes: dihydropyrimidine dehydrogenase (DPD), human, DPYD cDNA with a variant found in Japanese individuals; made by site-directed mutagenesis of the wild-type construct; also called 893C > T; source: 293FT cells, transfected (pcDNA3.4), soluble fraction
# B5: DPD variant Y304H (enzyme, human, UniProt Q12882 4-1025, looked up)
# chain: B1 chain with Y301H
# notes: dihydropyrimidine dehydrogenase (DPD), human, DPYD cDNA with a variant found in Japanese individuals; made by site-directed mutagenesis of the wild-type construct; also called 910T > C; source: 293FT cells, transfected (pcDNA3.4), soluble fraction
# B6: DPD variant V313L (enzyme, human, UniProt Q12882 4-1025, looked up)
# chain: B1 chain with V310L
# notes: dihydropyrimidine dehydrogenase (DPD), human, DPYD cDNA with a variant found in Japanese individuals; made by site-directed mutagenesis of the wild-type construct; also called 937G > T; source: 293FT cells, transfected (pcDNA3.4), soluble fraction
# B7: DPD variant M321I (enzyme, human, UniProt Q12882 4-1025, looked up)
# chain: B1 chain with M318I
# notes: dihydropyrimidine dehydrogenase (DPD), human, DPYD cDNA with a variant found in Japanese individuals; made by site-directed mutagenesis of the wild-type construct; also called 963G > A; source: 293FT cells, transfected (pcDNA3.4), soluble fraction
# B8: DPD variant V335M (enzyme, human, UniProt Q12882 4-1025, looked up)
# chain: B1 chain with V332M
# notes: dihydropyrimidine dehydrogenase (DPD), human, DPYD cDNA with a variant found in Japanese individuals; made by site-directed mutagenesis of the wild-type construct; also called 1003G > A; source: 293FT cells, transfected (pcDNA3.4), soluble fraction
# B9: DPD variant R353C (enzyme, human, UniProt Q12882 4-1025, looked up)
# chain: B1 chain with R350C
# notes: dihydropyrimidine dehydrogenase (DPD), human, DPYD cDNA with a variant found in Japanese individuals; made by site-directed mutagenesis of the wild-type construct; expression after SDS-PAGE was below the lower limit of quantification; also called 1057C > T; source: 293FT cells, transfected (pcDNA3.4), soluble fraction
# B10: DPD variant C354Y (enzyme, human, UniProt Q12882 4-1025, looked up)
# chain: B1 chain with C351Y
# notes: dihydropyrimidine dehydrogenase (DPD), human, DPYD cDNA with a variant found in Japanese individuals; made by site-directed mutagenesis of the wild-type construct; also called 1061G > A; source: 293FT cells, transfected (pcDNA3.4), soluble fraction
# B11: DPD variant G366A (enzyme, human, UniProt Q12882 4-1025, looked up)
# chain: B1 chain with G363A
# notes: dihydropyrimidine dehydrogenase (DPD), human, DPYD cDNA with a variant found in Japanese individuals; made by site-directed mutagenesis of the wild-type construct; also called 1097G > C; source: 293FT cells, transfected (pcDNA3.4), soluble fraction
# B12: DPD variant H25R (enzyme, human, UniProt Q12882 4-1025, looked up)
# chain: B1 chain with H22R
# notes: dihydropyrimidine dehydrogenase (DPD), human, DPYD cDNA with a variant found in Japanese individuals; made by site-directed mutagenesis of the wild-type construct; also called 74A > G; source: 293FT cells, transfected (pcDNA3.4), soluble fraction
# B13: DPD variant A380V (enzyme, human, UniProt Q12882 4-1025, looked up)
# chain: B1 chain with A377V
# notes: dihydropyrimidine dehydrogenase (DPD), human, DPYD cDNA with a variant found in Japanese individuals; made by site-directed mutagenesis of the wild-type construct; also called 1139C > T; source: 293FT cells, transfected (pcDNA3.4), soluble fraction
# B14: DPD variant K384E (enzyme, human, UniProt Q12882 4-1025, looked up)
# chain: B1 chain with K381E
# notes: dihydropyrimidine dehydrogenase (DPD), human, DPYD cDNA with a variant found in Japanese individuals; made by site-directed mutagenesis of the wild-type construct; also called 1150A > G; source: 293FT cells, transfected (pcDNA3.4), soluble fraction
# B15: DPD variant V434L (enzyme, human, UniProt Q12882 4-1025, looked up)
# chain: B1 chain with V431L
# notes: dihydropyrimidine dehydrogenase (DPD), human, DPYD cDNA with a variant found in Japanese individuals; made by site-directed mutagenesis of the wild-type construct; also called 1300G > C; source: 293FT cells, transfected (pcDNA3.4), soluble fraction
# B16: DPD variant F438V (enzyme, human, UniProt Q12882 4-1025, looked up)
# chain: B1 chain with F435V
# notes: dihydropyrimidine dehydrogenase (DPD), human, DPYD cDNA with a variant found in Japanese individuals; made by site-directed mutagenesis of the wild-type construct; also called 1312T > G; source: 293FT cells, transfected (pcDNA3.4), soluble fraction
# B17: DPD variant V515I (enzyme, human, UniProt Q12882 4-1025, looked up)
# chain: B1 chain with V512I
# notes: dihydropyrimidine dehydrogenase (DPD), human, DPYD cDNA with a variant found in Japanese individuals; made by site-directed mutagenesis of the wild-type construct; also called 1543G > A; source: 293FT cells, transfected (pcDNA3.4), soluble fraction
# B18: DPD variant F524L (enzyme, human, UniProt Q12882 4-1025, looked up)
# chain: B1 chain with F521L
# notes: dihydropyrimidine dehydrogenase (DPD), human, DPYD cDNA with a variant found in Japanese individuals; made by site-directed mutagenesis of the wild-type construct; also called 1572T > G; source: 293FT cells, transfected (pcDNA3.4), soluble fraction
# B19: DPD variant I528V (enzyme, human, UniProt Q12882 4-1025, looked up)
# chain: B1 chain with I525V
# notes: dihydropyrimidine dehydrogenase (DPD), human, DPYD cDNA with a variant found in Japanese individuals; made by site-directed mutagenesis of the wild-type construct; also called 1582A > G; source: 293FT cells, transfected (pcDNA3.4), soluble fraction
# B20: DPD variant I543V (enzyme, human, UniProt Q12882 4-1025, looked up)
# chain: B1 chain with I540V
# notes: dihydropyrimidine dehydrogenase (DPD), human, DPYD cDNA with a variant found in Japanese individuals; made by site-directed mutagenesis of the wild-type construct; also called 1627A > G (*5); source: 293FT cells, transfected (pcDNA3.4), soluble fraction
# B21: DPD variant I560V (enzyme, human, UniProt Q12882 4-1025, looked up)
# chain: B1 chain with I557V
# notes: dihydropyrimidine dehydrogenase (DPD), human, DPYD cDNA with a variant found in Japanese individuals; made by site-directed mutagenesis of the wild-type construct; also called 1678A > G; source: 293FT cells, transfected (pcDNA3.4), soluble fraction
# Target: the molecule itself
# Test: native gel or EMSA; blue native PAGE (Tris-glycine buffer, 5%-20% polyacrylamide gels), 9 μg of the soluble fraction of transfected 293FT cells per lane, immunoblot with polyclonal anti-human DPD antibody; monomer to dimer
row,Protein,stoichiometry N
1,B1,2
2,B2,2
3,B3,2
4,B4,2
5,B5,2
6,B6,2
7,B7,2
8,B8,2
9,B9,2
10,B10,2
11,B11,2
12,B12,2
13,B13,2
14,B14,2
15,B15,2
16,B16,2
17,B17,2
18,B18,2
19,B19,2
20,B20,2
21,B21,2
